Experimental data reported in patent publication US20070077239A1 (BOARD OF TRUSTEES OF THE UNIVERSITY OF ILLINOIS, published 2007).
Ends that are not written are not given here.

B1: MPO-WT-peptide (MPO-HC sequence 425-454) (peptide)
peptide: not shown
modifications: C-terminal amide
notes: Immobilised on nitrocellulose in the dot-blot; also called ADS
B2: EARKIV peptide (peptide)
peptide: EARKIV-NH2
notes: Synthetic hexapeptide from MPO-HC; also called EARKIV motif
B3: MPO-HC (60 kDa protein isolated from human lung tissue) (enzyme, UniProt P05164 279-745, looked up)
chain: VNCETSCVQQPPCFPLKIPPNDPRIKNQADCIPFFRSCPACPGSNITIRNQINALTSFVDASMVYGSEEPLARNLRNMSNQLGLLAVNQRFQDNGRALLPFDNLHDDPCLLTNRSARIPCFLAGDTRSSEMPELTSMHTLLLREHNRLATELKSLNPRWDGERLYQEARKIVGAMVQIITYRDYLPLVLGPTAMRKYLPTYRSYNDSVDPRIANVFTNAFRYGHTLIQPFMFRLDNRYQPMEPNPRVPLSRVFFASWRVVLEGGIDPILRGLMATPAKLNRQNQIAVDEIRERLFEQVMRIGLDLPALNMQRSRDHGLPGYNAWRRFCGLPQPETVGQLGTVLRNLKLARKLMEQYGTPNNIDIWMGGVSEPLKRKGRVGPLLACIIGTQFRKLRDGDRFWWENEGVFSMQQRQALAQISLPRIICDNTGITTVSKNNIFMSNSYPRDFVNCSTLPALNLASWREAS
notes: domain: heavy chain (HC); also called MPO heavy chain

Assays:
human serum albumin [1] = molecular target: T1, human serum albumin (human, UniProt P02768 25-609); experiment: dot-blot, 1.0 nmoles peptide per filter on nitrocellulose, 0.3 µM 125I-HSA, 2 h
T1 construct: also called HSA
Method: (§1) Peptides were immobilized on nitrocellulose membranes and non-specific binding was blocked with bovine γ-globulin (2 mg/ml in PBS) for 1 h at 22° C. Membranes were washed 2× with PBS and incubated with ¹²⁵I-labeled HSA ([…]) for 2 h at 22° C. Membranes were then washed 4× with PBS containing 0.05% Tween-20 (PBST) and autoradiography was performed. In some experiments, the membranes were directly counted to determine the membrane-associated radioactivity.
(§2) Peptides were immobilized on nitrocellulose membranes and then incubated with 1 ml of 0.3 μM ¹²⁵I-HSA in PBS for 2 h. Other details were described in Example 1. Non-specific binding was determined by incubating membranes with ¹²⁵I-HSA in the absence of any peptides. Results are shown mean±S.E. for three separate experiments made in triplicate.

human serum albumin [2] = molecular target: T1, human serum albumin; experiment: dot-blot, 2.5 nmoles peptide per filter on nitrocellulose, 0.3 µM 125I-HSA, 2 h
Method: as §1, §2

human serum albumin [3] = molecular target: T1, human serum albumin; experiment: dot-blot, 5.0 nmoles peptide per filter on nitrocellulose, 0.3 µM 125I-HSA, 2 h
Method: as §1, §2

human serum albumin [4] = molecular target: T1, human serum albumin; experiment: dot-blot, 10.0 nmoles peptide per filter on nitrocellulose, 0.3 µM 125I-HSA, 2 h
Method: as §1, §2

rat serum albumin = molecular target: T2, rat serum albumin (rat, UniProt P02770 25-608); experiment: binding of albumin to the immobilised peptide; details not given
T2 construct: also called RSA

human serum albumin [5] = molecular target: T1, human serum albumin; experiment: 125I-HSA dot-blot on peptide immobilised on nitrocellulose
Method: as §1, §2

human serum albumin [6] = molecular target: T1, human serum albumin; experiment: HSA-Sepharose affinity chromatography of human lung extract, elution at pH 4.0, SDS-PAGE, MALDI-MS
Method: Protein purification and MALDI-MS: Human lung tissue (180 g) was washed, minced, and homogenized with 20 volumes of buffer A (20 mM Hepes/Tris/0.15 M NaCl/0.1 mM phenylmethylsufonylfluoride [PMSF]/30 pM benzamidine [BM], pH 7.4). The homogenate was centrifuged at 1000×g for 10 min and the supernatant was centrifuged at 100,000×g for 60 min. The pellet obtained was solubilized using 2.5% sodium cholate and 4 M urea (Tiruppathi et al., Proc. Natl. Acad Sci. USA, 93:250-254 (1996)). The solubilized extract was concentrated by ethanol precipitation and re-extracted with Triton X- 100 (Tiruppathi et al., Proc. Natl. Acad Sci. USA, 93:250-254 (1996)). The Triton X-100 concentration in the extract was adjusted to 0.2% and applied on HSAsepharose column (1×10 cm) pre-equilibrated with buffer-B (10 MM Tris-HCl, 0.5 MM EDTA, pH 7.4 containing 0.1 mM PMSF, 30 [M BM, and 0.2% Triton X-100). The column was washed and bound proteins were eluted with 20 ml of 0.1 M citrate buffer pH 4.0 containing 0.2% Triton X- 100. The proteins eluted were separated on SDS-PAGE, stained with Coomassie Brilliant Blue R-250 (CBBR-250) (FIG. 1A). The protein bands excised were digested with trypsin and peptides were analyzed using MALDI-MS at Yale University Biotechnology Resource Laboratory (New Haven, Conn.). The peptide masses were compared with known sequence using Profound search analysis on OWL database. […]

T2 sequence (P02770 25-608 limits assumed): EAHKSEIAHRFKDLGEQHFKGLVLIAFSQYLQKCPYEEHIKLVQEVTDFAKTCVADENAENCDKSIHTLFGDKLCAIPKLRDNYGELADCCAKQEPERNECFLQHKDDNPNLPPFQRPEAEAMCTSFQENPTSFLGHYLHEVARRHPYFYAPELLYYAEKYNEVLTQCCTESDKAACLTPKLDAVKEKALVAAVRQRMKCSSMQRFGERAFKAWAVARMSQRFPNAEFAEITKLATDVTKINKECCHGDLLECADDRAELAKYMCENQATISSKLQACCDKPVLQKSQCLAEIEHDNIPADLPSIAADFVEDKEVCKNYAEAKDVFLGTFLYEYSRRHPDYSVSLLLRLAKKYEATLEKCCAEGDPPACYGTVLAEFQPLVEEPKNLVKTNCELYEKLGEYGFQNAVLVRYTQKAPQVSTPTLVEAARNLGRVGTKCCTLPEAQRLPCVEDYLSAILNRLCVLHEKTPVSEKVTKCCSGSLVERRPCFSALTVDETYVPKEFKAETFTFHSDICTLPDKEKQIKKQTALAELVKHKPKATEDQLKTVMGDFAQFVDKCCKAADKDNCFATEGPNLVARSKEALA

Row | Binder | 125I-HSA bound (pmoles/filter) (human serum albumin [1]) | 125I-HSA bound (pmoles/filter) (human serum albumin [2]) | 125I-HSA bound (pmoles/filter) (human serum albumin [3]) | 125I-HSA bound (pmoles/filter) (human serum albumin [4]) | binding result (rat serum albumin) | binding result (human serum albumin [5]) | binding result (human serum albumin [6])
1 | B1 | 0.31 pmoles/filter | 1.45 pmoles/filter | 2.93 pmoles/filter | 6.55 pmoles/filter | binds | – | –
2 | B2 | 0.05 pmoles/filter | 0.06 pmoles/filter | 0.08 pmoles/filter | 0.11 pmoles/filter | – | no binding | –
3 | B3 | – | – | – | – | – | – | binds
4 | GLATELGSLNPGWDGEGLYQEAGGIVGAMV-NH2 [MPO-MT-peptide] | 0.01 pmoles/filter | 0.11 pmoles/filter | 0.14 pmoles/filter | 0.19 pmoles/filter | – | no binding | –
